Assay results reported in US20070243589A1 (Pfizer, published 2007).
Changes are numbered by the printed parent chain. Blank lines part the entries; values can stand above or below the binder they belong to.

What was measured:
[1] = biological target: T1, murine IL-22 (murine, UniProt Q9JJY9 34-179); assay: ELISA: plate coated with 1 µg/ml antigen, IgG at 1 µg/ml, HRP anti-human IgG, A450
T1 construct: also called mouse IL-22
T1 sequence: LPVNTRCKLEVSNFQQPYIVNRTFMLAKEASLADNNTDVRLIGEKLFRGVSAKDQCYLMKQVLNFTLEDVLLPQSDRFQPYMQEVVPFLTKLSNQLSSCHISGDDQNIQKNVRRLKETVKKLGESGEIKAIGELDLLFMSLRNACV
Method: (§1) Cross species reactivity of germlined and non-germlined optimized antibodies were determined as follows: ELISA plates (Costar, Cat. #3590) were coated overnight with 1 μg/ml of rat, mouse, or human IL-22 or human IL-26 in PBS buffer. Plates were washed with PBST buffer (0.05% Tween20 in PBS) 3 times, then blocked with 1% BSA (Sigma A8918)/PBST for 1 hr at RT. Antibodies were added at 1 μg/ml, incubated 1 hr at 25° C. […] The plates were incubated for 1 hour at 25° C., then washed with PBST, and developed with TMB (KPL, Cat. #50-76-04). Reaction was stopped with 0.18 M H₂S0₄. Plates were read at OD 450 nm.

[2] = biological target: T2, human IL-22 (human, UniProt Q9GZX6 34-179); assay: cell-based or functional assay
T2 sequence: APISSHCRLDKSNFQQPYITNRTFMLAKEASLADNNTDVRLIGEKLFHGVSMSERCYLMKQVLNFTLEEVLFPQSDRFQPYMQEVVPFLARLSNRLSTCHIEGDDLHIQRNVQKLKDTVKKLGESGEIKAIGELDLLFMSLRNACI

[3] = biological target: T3, IL-26 (human, UniProt Q9NPH9); assay: ELISA: plate coated with 1 µg/ml human IL-26, IgG at 1 µg/ml, HRP anti-human IgG, A450
T3 construct: coated on the ELISA plate at 1 µg/ml; also called human IL-26
T3 sequence (cytokine, looked up): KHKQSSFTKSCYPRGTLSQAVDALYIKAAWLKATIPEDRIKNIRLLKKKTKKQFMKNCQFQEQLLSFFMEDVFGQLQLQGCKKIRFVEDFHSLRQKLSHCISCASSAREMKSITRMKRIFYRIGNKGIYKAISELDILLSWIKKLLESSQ
Method: as §1

[4] = biological target: T2, human IL-22; assay: cell-based or functional assay; remark: listed apart in the source
[5] = biological target: T4, BSA (bovine, UniProt P02769); assay: ELISA: wells labelled BSA, IgG at 1 µg/ml, HRP anti-human IgG, A450
T4 construct: background wells labelled BSA; also called bovine serum albumin
T4 sequence (P02769 25-607 limits assumed): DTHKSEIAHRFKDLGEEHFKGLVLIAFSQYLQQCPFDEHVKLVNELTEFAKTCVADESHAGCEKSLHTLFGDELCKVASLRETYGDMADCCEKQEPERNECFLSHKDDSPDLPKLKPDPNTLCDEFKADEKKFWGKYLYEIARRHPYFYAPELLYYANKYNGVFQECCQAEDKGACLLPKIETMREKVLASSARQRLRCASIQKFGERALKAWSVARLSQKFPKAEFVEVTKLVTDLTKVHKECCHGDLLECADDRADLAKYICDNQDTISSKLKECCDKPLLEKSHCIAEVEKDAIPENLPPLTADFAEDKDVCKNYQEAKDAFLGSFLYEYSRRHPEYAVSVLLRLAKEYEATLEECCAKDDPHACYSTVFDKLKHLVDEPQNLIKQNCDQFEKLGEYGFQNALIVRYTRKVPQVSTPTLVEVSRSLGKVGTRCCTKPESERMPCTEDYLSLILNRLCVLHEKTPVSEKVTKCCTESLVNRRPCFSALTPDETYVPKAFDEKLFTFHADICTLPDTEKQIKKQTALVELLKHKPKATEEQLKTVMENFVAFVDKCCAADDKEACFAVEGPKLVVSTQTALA
Method: as §1

[6] = biological target: T5, biotinylated IL-22 with an N-terminal His/FLAG tag (bio.IL-22H/F) (human, UniProt Q9GZX6 34-179, biotinylated (site not stated)); assay: biotinylated IL-22 binding IL-22 receptor complex competition assay, purified scFv, parent
T5 construct: not shown: N-terminal His/FLAG tag
T5 sequence: T2 sequence
Method: (§2) Microtiter plates were coated with an IL-22 receptor complex antibody (1 μg/ml in PBS), and incubated for 1.5 hours at room temperature. Plates were washed three times in PBST, and blocked for 1 hour at room temperature with 2% MPBS. After a further 3 washes, diluted cell conditioned medium containing an IL-22 receptor complex was added and incubated overnight at 4° C. Crude scFv supernatants were prepared as described above. The following day, 25 μl of diluted scFv sample and 25 μl of bio.IL-22H/F (6 ng/ml) were added to the washed plates, and incubated for 1.5 hours at room temperature. Plates were washed 3 times in PBST, then binding of bio.IL-22H/F to the IL-22 receptor complex was detected with Europium-Streptavidin and the DELFIA® reagent kit (PerkinElmer). Time Resolved Fluorescence was measured using a Victor 2™ Plate Reader (Perkin Elmer).
Sequence data for the six parent clones was used to identify the nearest germline sequence for the heavy and light chain of each clone. Appropriate mutations were made using standard site directed mutagenesis techniques with the appropriate mutagenic primers. Mutation of sequences was confirmed by sequence analysis. Purified scFv from the germlined parent clones were tested in the biotinylated IL-22 binding IL-22 receptor complex competition assay as described earlier, in order to establish the clone potency as measured by IC₅₀ values in the assay.

[7] = biological target: T5, biotinylated IL-22 with an N-terminal …; assay: IL-22 receptor complex inhibition assay (bio.IL-22H/F binding to IL-22 receptor complex, DELFIA), scFv
Method: (§3) Both the IL-22/IL-22R binding assay (described above) and the IL-22/IL-22 receptor complex assay (described below) were used. ScFv concentrations were titrated in order to establish the clone potencies as measured by assay IC₅₀ values. These were determined using GraphPad Prism software and four-parameter logistic equation curve fitting.
as §2

[8] = biological target: T5, biotinylated IL-22 with an N-terminal …; assay: DELFIA competition assay: scFv titrated against bio.IL-22H/F binding to the captured IL-22 receptor complex
Method: as §2
(§4) Purified scFv from positive clones identified from the screening were tested in the DELFIA® IL-22 receptor complex competition assay as described above. A titration of scFv concentrations was used in order to establish the clone potency as measured by IC₅₀ values in the assay. Fourteen optimized clones were designated 097D09, 062A09, 062G05, 087B03, 367D04, 368D04, 166B06, 166G05, 375G06, 376B10, 354A08, 355B06, 355E04, and 356A11.

[9] = biological target: T5, biotinylated IL-22 with an N-terminal …; assay: as above; remark: listed apart in the source
Method: as §2, §4

[10] = biological target: T5, biotinylated IL-22 with an N-terminal …; assay: as above; remark: listed apart in the source
Method: as §3, §2

B1: 355B06 germlined IgG (antibody, V domains shown)
VH: QVQLVQSGAEVKKPGASVKVSCKASGYTFTDYYMHWVRQAPGQGLEWVGWINPYTGSAFYAQKFRGRVTMTRDTSISTAYMELSRLRSDDTAVYYCAREPEKFGESSGQLWGRGTLVTVSS
VL: QAVLTQPPSVSGAPGQRVTISCTGSSSNIGAGYGVHWYQQLPGTAPKLLIYGDSNRPSGVPDRFSGSKSGTSASLAITGLQAEDEADYYCQSYDSGLSGYVFGGGTQLTVLG
binding result [1]: binds
IC50 (pM) of germlined IgG in BaF3-IL-22R proliferation assay [2]: 92 pM
binding result [3]: no binding (tested: 1 µg/ml (single concentration))
IC50 of IgG in BaF3-IL-22 proliferation assay [4]: 92 pM
binding result [5]: no binding (tested: 1 µg/ml (single concentration))

B3: GIL68 scFv (non-germlined parent) (scFv)
scFv: EVQLVQSGAEVKKPGASVKVSCQASGYTFSDYYIHWVRQTPGQGFEWMGWVNPDTGGTRYAQKFQGWVTMTRDMSNTTAYMELPRLRDDDTAVYYCARDLTGFDPFDIWGQGTLVTVSSGGGGSGGGGSGGGGSAQSVLTQPPSVSVAPGKTATITCGGNNFRNKRVHWYQQRPGQAPVLVIYYDSDRPSGIPERFSGSRSGNTATLTISRVEAGDEADFYCQVWDSSTDRPLFGGGTKLTVLGAAA
IC50 [6]: 9 nM
IC50 [7]: 7 nM
IC50 [8]: 10.6 nM
IC50 [9]: 7.45 nM
IC50 [10]: 10 nM

B6: 166B06 scFv (non-germlined) (scFv)
scFv: EVQLVQSGAEVKKPGASVKVSCQASGYTFSDYYIHWVRQTPGQGFEWMGWVNPDTGGTRYAQKFQGWVTMTRDMSNTTAYMELPRLRDDDTAVYYCARDLTGFDPFDIWGQGTLVTVSSGGGSSGGGGSGGGGSAQSVLTQPPSVSVAPGKTATITCGGNNFRNKRVHWYQQRPGQAPVLVIYYDSDRPSGIPERFSGSRSGNTATLTISRVEAGDEADFYCQVWDLFNDNGVFGGGTKLTVLGAAAH
notes: Optimized clone derived from GIL68
IC50 [8]: 0.62 nM
IC50 of scFv in BaF3-IL-22 proliferation assay [4]: 460 pM

Second part, led by results:

binding result [1]: binds
IC50 (pM) of germlined IgG in BaF3-IL-22R proliferation assay [2]: 100 pM
IC50 of IgG in BaF3-IL-22 proliferation assay [4]: 100 pM
B2: 355E04 germlined IgG (antibody, V domains shown)
VH: B1 VH with D31H, S57G, R65Q, G104D, E105S, S106P, S107N, G108A, Q109E, L110I
VL: B1 VL with D53N, G96S
binding result [3]: no binding (tested: 1 µg/ml (single concentration))
binding result [5]: no binding (tested: 1 µg/ml (single concentration))

IC50 of IgG in BaF3-IL-22 proliferation assay [4]: 197 pM
B4: 097D09 IgG (non-germlined) (antibody, V domains shown)
VH: EVQLVESGGGLVTPGGSLRLSCAASGFTFSDYYMSWVRQAPGRGLEWVSAISGSGGSTYYADSVKGRITISRDNAKNSLYLQMSSLRSEDTAVYYCARGLWVWDPLDYWGRGTLVTVSS
VL: DIQMTQSPSTLSASIGDRVTITCRASEGIYHWLAWYQQKPGKAPKLLIYKASSLASGAPSRFSGSGFGTDFTLTISSLQPDDFATYYCQQYSEFAWTFGGGTKLEIKR
notes: IgG
binding result [1]: no binding (tested: 1 µg/ml (single concentration))
binding result [3]: no binding (tested: 1 µg/ml (single concentration))
binding result [5]: no binding (tested: 1 µg/ml (single concentration))

binding result [1]: binds
IC50 of IgG in BaF3-IL-22 proliferation assay [4]: 127 pM
B5: 368D04 IgG (non-germlined) (antibody, V domains shown)
VH: EVQLVESGGGVVRPGGSLRLSCAASGFTFDDYGMNWVRQAPGKGLEWVSGVNWNGGTRDYAASVKGRFTISRDNAKNSLYLQMNSLRAEDTALYYCARGWYSGAAWNMGYWGRGTLVTVSS
VL: QAVLTQPSSVSGSPGQSITISCTGASGDVGAYNFVSWYQQHPGKTPKLIIYDVNKRPSGVSNRFSGSKSGNTASLTISGLQAEDESDYYCASLVSDFSVVFGGGTKVTVLG
binding result [3]: no binding (tested: 1 µg/ml (single concentration))
binding result [5]: no binding (tested: 1 µg/ml (single concentration))
